Values joined by “and” are separate entries in the source; they are usually repeats but may differ in a detail not shown here. Identical values can stand only once.
How the values were obtained:
[1] = molecular target: AP C3-convertase (C3bBb) (Homo sapiens (Human)) (UniProt P01024)
[2] = substrate: CP C3-convertase (C4b2a) (Homo sapiens (Human)) (UniProt P0C0L4)
[3] = molecular target: C3b (Homo sapiens (Human)) (UniProt P01024)
[4] = molecular target: C4b (Homo sapiens (Human)) (UniProt P0C0L4)
Sequence of C4b (Homo sapiens (Human)) (P0C0L4 757-1446 limits assumed, chain 1 of 2): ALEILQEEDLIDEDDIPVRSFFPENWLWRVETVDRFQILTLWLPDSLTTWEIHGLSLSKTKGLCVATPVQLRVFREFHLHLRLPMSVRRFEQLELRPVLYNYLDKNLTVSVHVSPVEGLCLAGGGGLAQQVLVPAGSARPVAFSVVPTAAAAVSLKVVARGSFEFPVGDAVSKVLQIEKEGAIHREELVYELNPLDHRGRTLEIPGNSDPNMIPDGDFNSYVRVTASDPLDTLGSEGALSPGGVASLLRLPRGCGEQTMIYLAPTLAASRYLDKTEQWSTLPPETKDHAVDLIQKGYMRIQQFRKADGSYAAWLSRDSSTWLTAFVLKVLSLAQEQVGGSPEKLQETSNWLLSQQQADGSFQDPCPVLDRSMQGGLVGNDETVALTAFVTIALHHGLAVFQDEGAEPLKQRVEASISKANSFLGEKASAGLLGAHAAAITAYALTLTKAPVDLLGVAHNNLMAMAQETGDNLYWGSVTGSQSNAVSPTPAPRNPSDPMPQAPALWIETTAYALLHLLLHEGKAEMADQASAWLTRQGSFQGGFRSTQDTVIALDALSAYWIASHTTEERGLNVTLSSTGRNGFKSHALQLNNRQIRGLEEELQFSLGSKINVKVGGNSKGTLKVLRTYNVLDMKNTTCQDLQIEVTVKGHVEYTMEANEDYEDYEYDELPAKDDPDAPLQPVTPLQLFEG
Sequence of C4b (Homo sapiens (Human)) (P0C0L4 20-675 limits assumed, chain 2 of 2): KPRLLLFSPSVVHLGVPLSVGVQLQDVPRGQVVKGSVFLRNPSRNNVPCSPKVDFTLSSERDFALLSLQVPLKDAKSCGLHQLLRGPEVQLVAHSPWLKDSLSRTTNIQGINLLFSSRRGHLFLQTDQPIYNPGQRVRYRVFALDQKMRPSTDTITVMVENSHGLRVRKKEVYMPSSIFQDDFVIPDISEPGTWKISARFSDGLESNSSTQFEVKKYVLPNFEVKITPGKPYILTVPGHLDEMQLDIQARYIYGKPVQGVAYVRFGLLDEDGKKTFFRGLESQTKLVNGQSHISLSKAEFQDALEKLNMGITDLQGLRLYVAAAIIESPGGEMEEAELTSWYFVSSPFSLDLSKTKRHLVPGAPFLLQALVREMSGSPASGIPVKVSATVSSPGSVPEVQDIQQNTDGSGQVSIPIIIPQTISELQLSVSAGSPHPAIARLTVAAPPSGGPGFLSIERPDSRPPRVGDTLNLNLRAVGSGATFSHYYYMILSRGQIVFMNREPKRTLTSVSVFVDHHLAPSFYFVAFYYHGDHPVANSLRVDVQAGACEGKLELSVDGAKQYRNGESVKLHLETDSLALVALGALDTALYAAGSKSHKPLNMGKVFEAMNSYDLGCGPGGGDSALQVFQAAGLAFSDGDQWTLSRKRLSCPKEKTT

| AP-DAA IC50 [1] | CP-DAA IC50 [2] | C3b CFA: time (min.) for 50% cleavage of C3b α′-chain [3] | C4b CFA: time (min.) for 50% cleavage of C4b α-chain [4] | Binder |
| --- | --- | --- | --- | --- |
| > 10 nM | 457 nM | – | – | D2M2-4 (protein) CEVPTRLNSASLKQPYITQNYFPVGTVVEYECRPGYRREPSLSPKLTCLQNLKWSTAVEFCKKKSCPYIRDPLNGQAVPANGTYEFGYQMHFICNEGYYLIGEEILYCELKGSVAIWSGKPPICEKVLCTPPPKIKNGKHTFSEVEVFEYLDAVTYSCDPAPGPDPFSLIGESTIYCGDNSVWSRAAPECKVVKCRFPVVENGKQISGFGKKFYYKATVMFECDKGFYLDGSDTIVCDSNSTWDPPVPKCLKVL |
| > 10 nM | > 1000 nM | – | – | D2M2-4 (ML) (protein) CEVPTRLNSASLKQPYITQNYFPVGTVVEYECRPGYRREPSLSPKLTCLQNLKWSTAVEFCYRETCPYIRDPLNGQAVPANGTYEFGYQMHFICNEGYYLIGEEILYCELKGSVAIWSGKPPICEKVLCTPPPKIKNGKHTFSEVEVFEYLDAVTYSCDPAPGPDPFSLIGESTIYCGDNSVWSRAAPECKVVKCRFPVVENGKQISGFGKKFYYKATVMFECDKGFYLDGSDTIVCDSNSTWDPPVPKCLKVL |
| – | – | 3.5 min and 2.1 min and 4.5 min | 16.5 min and 12 min and 9.3 min | membrane cofactor protein (MCP; CD46) (protein) CEEPPTFEAMELIGKPKPYYEIGERVDYKCKKGYFYIPPLATHTICDRNHTWLPVSDDACYRETCPYIRDPLNGQAVPANGTYEFGYQMHFICNEGYYLIGEEILYCELKGSVAIWSGKPPICEKVLCTPPPKIKNGKHTFSEVEVFEYLDAVTYSCDPAPGPDPFSLIGESTIYCGDNSVWSRAAPECKVVKCRFPVVENGKQISGFGKKFYYKATVMFECDKGFYLDGSDTIVCDSNSTWDPPVPKCLKVL |
| > 10 nM | 10.9 nM | – | – | D2D3 (protein) CEVPTRLNSASLKQPYITQNYFPVGTVVEYECRPGYRREPSLSPKLTCLQNLKWSTAVEFCKKKSCPNPGEIRNGQIDVPGGILFGATISFSCNTGYKLFGSTSSFCLISGSSVQWSDPLPECREIY |
| 1.1 nM and 2.3 nM | 16.5 nM and 14.5 nM and 2.6 nM | – | – | decay-accelerating factor (DAF; CD55) (protein) CGLPPDVPNAQPALEGRTSFPEDTVITYKCEESFVKIPGEKDSVICLKGSQWSDIEEFCNRSCEVPTRLNSASLKQPYITQNYFPVGTVVEYECRPGYRREPSLSPKLTCLQNLKWSTAVEFCKKKSCPNPGEIRNGQIDVPGGILFGATISFSCNTGYKLFGSTSSFCLISGSSVQWSDPLPECREIYCPAPPQIDNGIIQGERDHYGYRQSVTYACNKGFTMIGEHSIYCTVNNDEGEWSGPPPECRGKS |
| > 10 nM | 39.3 nM | 17.5 min | 5.5 min | D2D3M3M4 (Multi-4) (protein) CEVPTRLNSASLKQPYITQNYFPVGTVVEYECRPGYRREPSLSPKLTCLQNLKWSTAVEFCKKKSCPNPGEIRNGQIDVPGGILFGATISFSCNTGYKLIGKTSSFCLISGSSVQWSDKLPICEKVLCTPPPKIKNGKHTFSEVEVFEYLDAVTYSCDPAPGPDPFSLIGESTIYCGDNSVWSRAAPECKVVKCRFPVVENGKQISGFGKKFYYKATVMFECDKGFYLDGSDTIVCDSNSTWDPPVPKCLKVL |
| 1.9 nM | 22.6 nM | 27.3 min | 443 min | D2D3M3M4 (Multi-1) (protein) CEVPTRLNSASLKQPYITQNYFPVGTVVEYECRPGYRREPSLSPKLTCLQNLKWSTAVEFCKKKSCPNPGEIRNGQIDVPGGILFGATISFSCNTGYKLFGSTSSFCLISGSSVQWSDPLPICEKVLCTPPPKIKNGKHTFSEVEVFEYLDAVTYSCDPAPGPDPFSLIGESTIYCGDNSVWSRAAPECKVVKCRFPVVENGKQISGFGKKFYYKATVMFECDKGFYLDGSDTIVCDSNSTWDPPVPKCLKVL |
| 2.3 nM | 15.3 nM | 74.3 min | 268 min | D2D3M3M4 (T192E) (protein) CEVPTRLNSASLKQPYITQNYFPVGTVVEYECRPGYRREPSLSPKLTCLQNLKWSTAVEFCKKKSCPNPGEIRNGQIDVPGGILFGATISFSCNEGYKLFGSTSSFCLISGSSVQWSDPLPECREIYCTPPPKIKNGKHTFSEVEVFEYLDAVTYSCDPAPGPDPFSLIGESTIYCGDNSVWSRAAPECKVVKCRFPVVENGKQISGFGKKFYYKATVMFECDKGFYLDGSDTIVCDSNSTWDPPVPKCLKVL |
| 3.4 nM | 21 nM | 30.1 min | 93 min | D2D3M3M4 (P216K) (protein) CEVPTRLNSASLKQPYITQNYFPVGTVVEYECRPGYRREPSLSPKLTCLQNLKWSTAVEFCKKKSCPNPGEIRNGQIDVPGGILFGATISFSCNTGYKLFGSTSSFCLISGSSVQWSDKLPECREIYCTPPPKIKNGKHTFSEVEVFEYLDAVTYSCDPAPGPDPFSLIGESTIYCGDNSVWSRAAPECKVVKCRFPVVENGKQISGFGKKFYYKATVMFECDKGFYLDGSDTIVCDSNSTWDPPVPKCLKVL |
| 2.4 nM and 2.1 nM | 5.1 nM and 15.9 nM | 80.7 min and 82.6 min | 429 min and 465 min | D2D3M3M4 (protein) CEVPTRLNSASLKQPYITQNYFPVGTVVEYECRPGYRREPSLSPKLTCLQNLKWSTAVEFCKKKSCPNPGEIRNGQIDVPGGILFGATISFSCNTGYKLFGSTSSFCLISGSSVQWSDPLPECREIYCTPPPKIKNGKHTFSEVEVFEYLDAVTYSCDPAPGPDPFSLIGESTIYCGDNSVWSRAAPECKVVKCRFPVVENGKQISGFGKKFYYKATVMFECDKGFYLDGSDTIVCDSNSTWDPPVPKCLKVL |
| 3.7 nM | 17.7 nM | 103 min | 513 min | D2D3M3M4 (T200Y) (protein) CEVPTRLNSASLKQPYITQNYFPVGTVVEYECRPGYRREPSLSPKLTCLQNLKWSTAVEFCKKKSCPNPGEIRNGQIDVPGGILFGATISFSCNTGYKLFGSYSSFCLISGSSVQWSDPLPECREIYCTPPPKIKNGKHTFSEVEVFEYLDAVTYSCDPAPGPDPFSLIGESTIYCGDNSVWSRAAPECKVVKCRFPVVENGKQISGFGKKFYYKATVMFECDKGFYLDGSDTIVCDSNSTWDPPVPKCLKVL |
| 6.6 nM | 21.7 nM | 18.9 min | 181 min | D2D3M3M4 (S199K) (protein) CEVPTRLNSASLKQPYITQNYFPVGTVVEYECRPGYRREPSLSPKLTCLQNLKWSTAVEFCKKKSCPNPGEIRNGQIDVPGGILFGATISFSCNTGYKLFGKTSSFCLISGSSVQWSDPLPECREIYCTPPPKIKNGKHTFSEVEVFEYLDAVTYSCDPAPGPDPFSLIGESTIYCGDNSVWSRAAPECKVVKCRFPVVENGKQISGFGKKFYYKATVMFECDKGFYLDGSDTIVCDSNSTWDPPVPKCLKVL |
| 2.4 nM | 12.7 nM | 3.3 min | 3.1 min | D2D3M3M4 (Multi-5) or DCP (protein) CEVPTRLNSASLKQPYITQNYFPVGTVVEYECRPGYRREPSLSPKLTCLQNLKWSTAVEFCKKKSCPNPGEIRNGQIDVPGGILFGATISFSCNTGYKLIGSTSSFCLISGSSVQWSDKLPICEKVLCTPPPKIKNGKHTFSEVEVFEYLDAVTYSCDPAPGPDPFSLIGESTIYCGDNSVWSRAAPECKVVKCRFPVVENGKQISGFGKKFYYKATVMFECDKGFYLDGSDTIVCDSNSTWDPPVPKCLKVL |
| > 10 nM | > 100 nM | – | > 540 min | D2D3M3M4 (K195Y) (protein) CEVPTRLNSASLKQPYITQNYFPVGTVVEYECRPGYRREPSLSPKLTCLQNLKWSTAVEFCKKKSCPNPGEIRNGQIDVPGGILFGATISFSCNTGYYLFGSTSSFCLISGSSVQWSDPLPECREIYCTPPPKIKNGKHTFSEVEVFEYLDAVTYSCDPAPGPDPFSLIGESTIYCGDNSVWSRAAPECKVVKCRFPVVENGKQISGFGKKFYYKATVMFECDKGFYLDGSDTIVCDSNSTWDPPVPKCLKVL |
| 4.4 nM | 30.7 nM | 49.8 min | 66.7 min | D2D3M3M4 (F197I) (protein) CEVPTRLNSASLKQPYITQNYFPVGTVVEYECRPGYRREPSLSPKLTCLQNLKWSTAVEFCKKKSCPNPGEIRNGQIDVPGGILFGATISFSCNTGYKLIGSTSSFCLISGSSVQWSDPLPECREIYCTPPPKIKNGKHTFSEVEVFEYLDAVTYSCDPAPGPDPFSLIGESTIYCGDNSVWSRAAPECKVVKCRFPVVENGKQISGFGKKFYYKATVMFECDKGFYLDGSDTIVCDSNSTWDPPVPKCLKVL |
| > 10 nM | 9.2 nM | 104 min | 433 min | D2D3M3M4 (L205K) (protein) CEVPTRLNSASLKQPYITQNYFPVGTVVEYECRPGYRREPSLSPKLTCLQNLKWSTAVEFCKKKSCPNPGEIRNGQIDVPGGILFGATISFSCNTGYKLFGSTSSFCKISGSSVQWSDPLPECREIYCTPPPKIKNGKHTFSEVEVFEYLDAVTYSCDPAPGPDPFSLIGESTIYCGDNSVWSRAAPECKVVKCRFPVVENGKQISGFGKKFYYKATVMFECDKGFYLDGSDTIVCDSNSTWDPPVPKCLKVL |
| 5.6 nM | 5.7 nM | – | – | D2D3D4M4 (protein) CEVPTRLNSASLKQPYITQNYFPVGTVVEYECRPGYRREPSLSPKLTCLQNLKWSTAVEFCKKKSCPNPGEIRNGQIDVPGGILFGATISFSCNTGYKLFGSTSSFCLISGSSVQWSDPLPECREIYCPAPPQIDNGIIQGERDHYGYRQSVTYACNKGFTMIGEHSIYCTVNNDEGEWSGPPPECRGKSCRFPVVENGKQISGFGKKFYYKATVMFECDKGFYLDGSDTIVCDSNSTWDPPVPKCLKVL |

— patent US12662524B2
